This passage reports IC50 results from PMC10907249.

As a reminder, the IC50 is the midpoint of a concentration-inhibition curve.

In the assay the target is HLA-A*02:01 refolded with the photocleavable peptide photoKV9, UV-exposed (A*02/photoKV9). Put plainly: fluorescence polarisation. (In general: Fluorescence polarisation rises when a labelled molecule tumbles more slowly, as on binding a larger partner.)

Take “US11 peptide S28V_WT (amino acids 17 to 44) (from UniProt P09727 17-44)”: the half-inhibitory concentration (IC50) turned out to be 3.83 µM.
